Assay results: article PMC7972864, “Fucoxanthin Prevents 6-OHDA-Induced Neurotoxicity by Targeting Keap1” (Oxidative Medicine and Cellular Longevity, 2021)

Biological target: human Keap1 protein (human), Q14145
Experiment: BLI
Settings: natural protein; chains chain; biotinylated (site not stated); remark: other sources report otherwise

Chain of human Keap1 protein (human), Q14145 (Q14145 whole entry): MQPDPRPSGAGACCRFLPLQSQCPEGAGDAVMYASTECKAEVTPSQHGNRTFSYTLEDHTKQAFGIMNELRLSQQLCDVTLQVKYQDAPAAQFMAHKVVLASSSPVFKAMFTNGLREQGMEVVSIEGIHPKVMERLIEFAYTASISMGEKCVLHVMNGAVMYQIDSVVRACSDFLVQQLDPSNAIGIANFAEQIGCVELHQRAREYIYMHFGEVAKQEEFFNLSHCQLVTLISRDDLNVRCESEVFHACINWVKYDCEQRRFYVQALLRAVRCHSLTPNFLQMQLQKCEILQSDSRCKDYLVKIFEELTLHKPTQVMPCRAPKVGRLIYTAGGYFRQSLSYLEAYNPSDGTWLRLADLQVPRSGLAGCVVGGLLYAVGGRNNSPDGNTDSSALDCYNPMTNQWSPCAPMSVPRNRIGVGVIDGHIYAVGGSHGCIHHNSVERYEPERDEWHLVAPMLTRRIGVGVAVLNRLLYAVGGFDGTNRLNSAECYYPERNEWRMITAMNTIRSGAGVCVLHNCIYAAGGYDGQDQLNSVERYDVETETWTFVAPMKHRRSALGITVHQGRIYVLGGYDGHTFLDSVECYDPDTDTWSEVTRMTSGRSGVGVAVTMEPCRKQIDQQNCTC

- Kd: 0.0126 µM
B1: human Nrf2 protein, Q16236 1-605 (protein)
chain: MMDLELPPPGLPSQQDMDLIDILWRQDIDLGVSREVFDFSQRRKEYELEKQKKLEKERQEQLQKEQEKAFFAQLQLDEETGEFLPIQPAQHIQSETSGSANYSQVAHIPKSDALYFDDCMQLLAQTFPFVDDNEVSSATFQSLVPDIPGHIESPVFIATNQAQSPETSVAQVAPVDLDGMQQDIEQVWEELLSIPELQCLNIENDKLVETTMVPSPEAKLTEVDNYHFYSSIPSMEKEVGNCSPHFLNAFEDSFSSILSTEDPNQLTVNSLNSDATVNTDFGDEFYSAFIAEPSISNSMPSPATLSHSLSELLNGPIDVSDLSLCKAFNQNHPESTAEFNDSDSGISLNTSPSVASPEHSVESSSYGDTLLGLSDSEVEELDSAPGSVKQNGPKTPVHSSGDMVQPLSPSQGQSTHVHDAQCENTPEKELPVSPGHRKTPFTKDKHSSRLEAHLTRDELRAKALHIPFPVEKIINLPVVDFNEMMSKEQFNEAQLALIRDIRRRGKNKVAAQNCRKRKLENIVELEQDLDHLKDEKEKLLKEKGENDKSLHLLKKQLSTLYLEVFSMLRDEDGKPYSPSEYSLQQTRDGNVFLVPKSKKPDVKKN
